The values that follow come from publication PMC2796841 (Integrative biology : quantitative biosciences from nano to …, 2009).

The data set deals with tumor. The note with it: mouse, in vivo.

With PAMAM-e9-xPLGLAG-r9-k(Cy5), the “time of maximal contrast after injection” value worked out at 48 h.
